Reference: the supplement of paper PMC9732359
± gives the uncertainty stated by the source.

Test: protein stability index of a GFP-peptide fusion (yeast GPS) (PSI 1-4); higher = more stable; sorted into four equal gates, so the index is relative within each strain
How it was run: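 Tiled yeast protein peptides of 17 residues were each joined downstream of GFP, on plasmids that also express Cherry. The pooled library was maintained in yeast, and mid-log cultures in leucine-free medium were sorted into four equal gates on the GFP/Cherry ratio. Plasmids from every gate were amplified by PCR and sequenced on Illumina, with barcodes linking reads to strains. The protein stability index of a peptide is its gate-number-weighted read frequency summed over the gates.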

Row | Sequence | protein stability index (pdr5∆) | protein stability index (doa10∆) | protein stability index (san1∆) | protein stability index (ubr1∆)
1 | RSIMKNRSVVYFKLDLT [RRI2] | 1.58 ± 0.22 | – | – | –
2 | MSIVFGDKFSEDFRIQF [UBP6] | 2.71 ± 0.1 | 3.28 ± 0.13 | 2.2 ± 0.092 | 2.37 ± 0.063
3 | IGQLIGEVMKELSEEKY [RPT4] | 3.42 ± 0.076 | 3.27 ± 0.063 | 3.44 ± 0.067 | 3.27 ± 0.042
4 | VLNEDDLAFGGEANKHH [RPN5] | 3.13 ± 0.089 | 3.25 ± 0.09 | 3.25 ± 0.057 | 3.48 ± 0.12
5 | NTEEVNRLEKEQSVKTQ [LIN1] | – | 2.21 ± 0.2 | – | 1.74 ± 0.27
6 | SYSPTSPSYSPTSPSYS [RPO21] | 2.66 ± 0.041 | 2.53 ± 0.042 | 2.78 ± 0.037 | 2.76 ± 0.034
7 | EKLKQFSWISVVNDLVG [SIR3] | 1.99 ± 0.058 | 1.61 ± 0.052 | 1.53 ± 0.08 | 1.55 ± 0.034
8 | KESWDPNTTKTKLRAFV [YGR119C/NUP57] | 2.93 ± 0.19 | 3.5 ± 0.22 | 3.37 ± 0.12 | 2.77 ± 0.1
9 | PHELTESVLPAARYDYA [QCR2] | 1.92 ± 0.046 | 2.22 ± 0.061 | 2.09 ± 0.081 | 1.92 ± 0.044
10 | SPQKFETNLQTFLPPLL [ECM29] | 2.95 ± 0.06 | 3.01 ± 0.071 | 3.2 ± 0.04 | 2.92 ± 0.049
11 | RPDIVHTVFTSVNKNKR [RPL4A] | 1.46 ± 0.11 | 1.26 ± 0.088 | 1.24 ± 0.17 | 1.4 ± 0.12
12 | GKSEKLSLLLVEDKIPL [SKI6] | 2.79 ± 0.095 | 2.45 ± 0.11 | 3.23 ± 0.056 | 3.27 ± 0.12
13 | DLSWSKQTDTGITHFRA [PRP8] | 3.11 ± 0.057 | 2.85 ± 0.085 | 3 ± 0.055 | 3.02 ± 0.049
14 | EFDSTDTSLCINGEPSI [RRI1] | 3.15 ± 0.088 | 3.16 ± 0.077 | 3.08 ± 0.054 | 3.24 ± 0.046
15 | PVLKKKAAFLGSEVRLR [COR1] | 3.16 ± 0.071 | 2.91 ± 0.074 | 2.97 ± 0.07 | 3.3 ± 0.078
16 | HTEDTVNESRNSDDIID [SRB5] | 2.52 ± 0.056 | 2.31 ± 0.061 | 2.43 ± 0.071 | 2.46 ± 0.055
17 | NSQLVGKPHFSLLGGFD [PCI8] | 2.33 ± 0.09 | 2.42 ± 0.087 | 2.34 ± 0.18 | 2.54 ± 0.053
18 | HTLALEFVNGGKVVKNV [RRP46] | 2.22 ± 0.074 | 2.2 ± 0.18 | 2.19 ± 0.29 | 2.14 ± 0.13
19 | PGNGKHASENISLSFSR [SIR4] | 2.88 ± 0.062 | 2.49 ± 0.081 | 2.97 ± 0.061 | 3.05 ± 0.058
20 | GREGIWSKTIKARTNLH [RPC34] | 1.58 ± 0.2 | 1.46 ± 0.12 | – | 1.51 ± 0.29
21 | IMKIGGIKLQMQNSKVE [SMC4] | 1.82 ± 0.1 | 2.11 ± 0.13 | 2.25 ± 0.12 | 2.1 ± 0.12
22 | FDIYNRDRKLITDKGTV [YJL039C/NUP192] | 2.53 ± 0.093 | 3.18 ± 0.13 | 2.86 ± 0.11 | 2.96 ± 0.083
23 | VSDSNDDVRRAAVIALG [RPN2] | 3.26 ± 0.13 | 3.26 ± 0.1 | 2.7 ± 0.17 | 3.42 ± 0.14
24 | SSPTLATGFGAHMANPL [PRE4] | 3.07 ± 0.097 | 3.26 ± 0.09 | 2.98 ± 0.068 | 2.65 ± 0.097
25 | PAKSASARGSYLRVSFK [RPL17A] | 3.27 ± 0.051 | 3.2 ± 0.046 | 3.091 ± 0.029 | 3.14 ± 0.041
26 | NLKVELKEQSEQLKEQM [SMC4] | 3.2 ± 0.067 | 3.27 ± 0.055 | 3.29 ± 0.035 | 3.2 ± 0.057
27 | LSDVAFYVQDVYKDNLS [RPO31] | 1.7 ± 0.12 | 1.8 ± 0.12 | – | 1.22 ± 0.14

Row | Sequence | protein stability index (pdr5∆) | protein stability index (doa10∆) | protein stability index (san1∆) | protein stability index (ubr1∆)
28 | KHWTEKSLHEMNERDWR [PRP28] | 3.02 ± 0.3 | 3.55 ± 0.21 | 2.97 ± 0.2 | –
29 | SESKQLGNTSSVANTPS [SWI3] | 2.56 ± 0.057 | 3.08 ± 0.071 | 2.98 ± 0.073 | 2.94 ± 0.046
30 | SWYLNTFDGIRMSSEEV [GRR1] | 2.1 ± 0.059 | 2.73 ± 0.061 | 2.13 ± 0.066 | 2.27 ± 0.043
31 | GSKQADRMAKYLHIRDK [PGD1] | 3.3 ± 0.097 | 3.08 ± 0.12 | 3.09 ± 0.057 | 3.14 ± 0.071
32 | NHMLIDSLNQLEIRNKI [RGR1] | 3.04 ± 0.069 | 2.97 ± 0.097 | 2.92 ± 0.079 | 3.08 ± 0.076
33 | MDSIIPAGVKLDDLQVI [PGD1] | 3.05 ± 0.091 | 2.5 ± 0.093 | 2.57 ± 0.061 | 2.52 ± 0.056
34 | GKICLILTRLNGILPDD [SSN2] | – | 3.12 ± 0.21 | – | 3.5 ± 0.15
35 | RPEQLSNIIHDESDTIS [SNF6] | 2.58 ± 0.063 | 1.82 ± 0.09 | 2.02 ± 0.11 | 2.32 ± 0.061
36 | VLVVRGSKKGQEGKISS [RPL26A] | 3.19 ± 0.099 | 3.54 ± 0.085 | 3.06 ± 0.068 | 3.44 ± 0.084
37 | YFKLDLTSDLVYFGDEN [RRI2] | 2.47 ± 0.3 | 2.09 ± 0.15 | – | 1.48 ± 0.08
38 | ESKLRDDLERLKKIRAH [RPS18A] | 1.98 ± 0.087 | 2.78 ± 0.13 | 1.5 ± 0.16 | 3.3 ± 0.048
39 | NQQQQQQQQQQQQRRQL [GAL11] | 2.9 ± 0.063 | 2.79 ± 0.056 | 2.84 ± 0.043 | 2.91 ± 0.051
40 | VVNDLVGEKLVVVVLEE [SIR3] | 3.18 ± 0.067 | 3.42 ± 0.076 | 3.42 ± 0.042 | 3.53 ± 0.081
41 | RTMDDIKDSVREVGTKF [ECM29] | 3.47 ± 0.11 | 3.35 ± 0.11 | 3.27 ± 0.088 | 3.29 ± 0.072
42 | VSNKFEKIFHYGHVFLG [PUP3] | – | 2.94 ± 0.28 | – | –
43 | AFADRLGQYVQAHTLYN [PRE10] | 1.95 ± 0.066 | 2.22 ± 0.085 | 1.74 ± 0.12 | 2.03 ± 0.11
44 | NPNSTAITADLGSSEAE [YGL172W/NUP49] | 2.4 ± 0.14 | 2.56 ± 0.24 | 2.86 ± 0.22 | 2.76 ± 0.12
45 | KERYTVEDELTESIALS [RRI1] | 3.29 ± 0.052 | 3.1 ± 0.065 | 3.11 ± 0.075 | 3.23 ± 0.058
46 | KIAERSLLLKNYLNDMH [SKP1] | 2.54 ± 0.07 | 2.55 ± 0.12 | 1.81 ± 0.17 | 1.78 ± 0.067
47 | PRSPGRSPTRRLELLQL [SMC4] | 2.12 ± 0.15 | 1.41 ± 0.27 | 1.99 ± 0.25 | 1.7 ± 0.13
48 | ADEMGLGKTIQTISLLT [SNF2] | 2.5 ± 0.086 | 1.73 ± 0.092 | 2.46 ± 0.08 | 2.41 ± 0.075
49 | KDNARIYQVPEKDLEHW [POP1] | – | – | 2.26 ± 0.23 | –
50 | DYVTNPDTKISSAAILG [RPN1] | 2.43 ± 0.1 | 2.42 ± 0.087 | 2.21 ± 0.17 | 1.91 ± 0.1
51 | RNNVMLLIATNLKEYNK [SRB8] | 2.11 ± 0.099 | 2.44 ± 0.11 | 2.74 ± 0.081 | 2.21 ± 0.072
52 | THVANFMNDAAADVSAV [YML103C/NUP188] | 2.77 ± 0.073 | 2.79 ± 0.097 | 2.44 ± 0.081 | 2.84 ± 0.049
53 | IMDELLSSIAERVRNFA [DIB1] | 2.27 ± 0.086 | 1.9 ± 0.065 | 2.06 ± 0.084 | 2.17 ± 0.082
54 | IIYHTTFSWLNAELLDY [YLR018C/POM34] | 2.19 ± 0.068 | 2.72 ± 0.072 | 2.56 ± 0.092 | 2.41 ± 0.052
